Bound fraction data for one molecule are collected here from article PMC12065904, “Mapping the interaction surface between CaVβ and actin and its role in calcium channel clearance” (Nature Communications, 2025).

For this experiment, the target named is rabbit skeletal muscle actin, polymerized in vitro (F-actin) (rabbit, UniProt P68135 1-377). The experiment is described as follows: co-sedimentation; F-actin cosedimentation: CaVβ proteins incubated with polymerized actin in polymerization buffer (0.2 mM CaCl2, 50 mM KCl, 2 mM MgCl2, 1 mM ATP, 5 mM HEPES pH 8.0), 25 µM phalloidin; 150,000 × g, 20 min, 4 °C; densitometry of pellet over total; also at 30–150 mM NaCl and after 30 or 90 min of incubation. The note with it: both partners purified.

B1: CaVβ2-core WT (core region of rat CaVβ2, residues 23–422) (domain or fragment)
chain: not shown
notes: rat CaVβ2 (voltage-gated calcium channel β2 subunit), UniProtKB Q8VGC3-2, core region (SH3 and GK domains), residues 23–422; Expressed from pRSETB
As for B1, the bound fraction amounted to 0.24 ± 0.03 fraction.
